Publication PMC7806223, “Structures of Rhodopseudomonas palustris RC-LH1 complexes with open or closed quinone channels” (Science Advances, 2021)

B1: LH1-β (PufB) (natural protein)
chain: not shown
notes: LH1-β (PufB) of Rhodopseudomonas palustris; mass spectrometry of wild-type RC-LH1: residues Ser2 to Ala53; resolved Gly4 to Tyr52 in RC-LH1_(16) and Ser5 to Tyr52 in RC-LH1_(14)-W, no density for 13 C-terminal residues; 14 copies in RC-LH1_(14)-W, 16 copies in RC-LH1_(16); The termini were found by mass spectrometry on mixed complexes of the wild-type strain; also called β-polypeptide; source: …
B2: RC-H (PuhA) (natural protein, Rhodopseudomonas palustris CGA009, UniProt A0A4Z9 1-255, looked up)
chain: MQPGAYLDLAQVTLYVFWIFFAGLLFYLRREDKREGYPLVADAGSGTRLAKIGVPAPPDPKTYLLRGGATKTVPSTSNDRPNVALTPAAPWPGAPFVPTGNPFADGVGPGSYAQRADVPELGLDNLPIIVPLRAAKGMFLDPRDPNPVGMPVVGCDGVVGGTVTEVWVDRAEVLARYLEVEVAKSRKRVLLPVPFALINDPFGKVSVDAIRGDQFAGVPTTSKGDQVSKLEEDKICAYYGAGTLYATPLRSESLV
notes: reaction center H subunit (PuhA) of Rhodopseudomonas palustris; C-terminal amino acids are unresolved in the map; also called subunit H; source: endogenous, Rps. palustris CGA009 (ΔpufW and PufW-His strains); purified within RC-LH1 complexes from β-DDM-solubilized membranes

How the values were obtained:
Assay in all cases: cryo-EM structure; RC-LH1_(14)-W complex purified from the PufW-His strain; in IMAC buffer (20 mM tris-HCl pH 8.0, 200 mM NaCl, 0.03% β-DDM); 2.65 Å
Conditions in all cases: both partners purified
[1] = target: T1, protein-W (PufW), C-terminally 10× His-tagged (Rhodopseudomonas palustris CGA009, UniProt Q6N1K3 1-102)
T1 construct: protein-W (PufW, RPA4402) of Rhodopseudomonas palustris, a 10.5-kDa protein with three transmembrane helices; C-terminal amino acids are unresolved in the map; also called PufW-His; RPA4402; source: Rps. palustris CGA009 PufW-His strain, expressed from the native pufW locus; purified within RC-LH1_(14)-W (Ni-NTA IMAC, DEAE, SEC); not shown: 10× His, C-terminal, kept
T1 sequence: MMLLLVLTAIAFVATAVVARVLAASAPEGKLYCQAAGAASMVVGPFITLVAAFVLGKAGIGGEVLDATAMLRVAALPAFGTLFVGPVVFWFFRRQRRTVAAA

RC-M (PufM) = target: T2, RC-M (PufM) (Rhodopseudomonas palustris CGA009, UniProt A0A4Z7 1-307)
T2 construct: reaction center M subunit (PufM) of Rhodopseudomonas palustris; also called subunit M; M polypeptide; source: endogenous, Rps. palustris CGA009 (ΔpufW and PufW-His strains); purified within RC-LH1 complexes from β-DDM-solubilized membranes

RC-L (PufL) = target: T3, RC-L (PufL) (Rhodopseudomonas palustris CGA009, UniProt O83005 1-277)
T3 construct: reaction center L subunit (PufL) of Rhodopseudomonas palustris; also called subunit L; L polypeptide; source: endogenous, Rps. palustris CGA009 (ΔpufW and PufW-His strains); purified within RC-LH1 complexes from β-DDM-solubilized membranes

Row | binding result [1] | binding result (RC-M (PufM)) | binding result (RC-L (PufL)) | Binder
1 | binds |  |  | B1
2 |  | binds | binds | B2
